The test deals with myc-tagged LIMP-2. Description: cell-based or functional assay.

These results are taken from US20170258870A1.

“wild-type β-glucocerebrosidase (GC), human, overexpressed in cells (from UniProt P04062 40-536) (enzyme)” registered a post-ER form of GC (EndoH resistance) on co-expression of LIMP-2 of 10 fold.
